What was measured:
A431 cells = assay: Fluorescence microscopy of Pan-IR700 in A431 cells; type: cell-based; conditions: after 24 h incubation
Description: EGFR-expressing A431 cells were used as the target HER1+ cells. […] Cells were grown in RPMI 1640 supplemented with 10% fetal bovine serum and 1% penicillin/streptomycin in tissue culture flasks in a humidified incubator at 37° C. in an atmosphere of 95% air and 5% carbon dioxide. A431 or Balb/3T3/DsRed cells were seeded on cover glass-bottomed dishes and incubated for 24 hours. Pan-IR700 was added to the culture medium at 10 μg/mL and incubated either for 1 hour on ice or 6 hours at 37° C., then cells were washed with PBS. Culture medium was replaced with phenol red-free medium after washing with phosphate buffered saline (PBS).
Fluorescence microscopy was performed as described in Example 2 to detect the antigen-specific localization of IR700.
Reagents. […] The protein concentrations were determined with Coomassie Plus protein assay kit (Pierce Biotechnology) by measuring light absorption at 595 nm (8453 Value System; Agilent Technologies). […] Quenching efficiency (QE) for a particular conjugation is defined as the fluorescence intensity with SDS divided by fluorescence intensity without SDS. […] Fluorescence lifetime measurements. […] Lifetime values and lifetime mapping were calculated to fit fluorescence temporal point-spread functions (TPSFs) as single-exponential models with the Fit TPSF tool. […] Power densities were measured with an optical power meter (PM 100, Thorlabs). […]

MDA-MB-468 cells = assay: In vitro PIT, microscopy before and after; type: cell-based
Description: For photoimmunotherapy (PIT), cells were seeded on 35 mm cover glass-bottomed dishes and incubated 24 hours. […] Culture medium was replaced with phenol red-free medium after washing with phosphate buffered saline (PBS). Cells were irradiated with light at 670 nm to 690 nm using a red light emitting diode (LED; FluorVivo; INDEC Systems Inc., Capitola, Calif.) with a power density of 2.6 mW cm^−2 as measured with optical power meter (PM 100, Thorlabs, Newton, N.J.). Cell viability was assessed 1 hour after treatment with LIVE/DEAD® Fixable Green Dead Cell Stain Kit (Invitrogen). After the treatment, cells were trypsinized and washed with PBS. Green fluorescent reactive dye was added in the cell suspension and incubated at room temperature for 30 minutes. Cells were then analyzed on flow cytometer (FACS Calibur, BD BioSciences, San Jose, Calif.).
This example describes additional results showing that the disclosed antibody-IR700 compounds selectively kill cells that express the appropriate protein. The photoimmunotherapy (PIT) methods are described in Example 2.

A431 tumor = assay: In vivo fluorescence imaging of Pan-IR700 in A431 tumors; set-up: species or system mice
Description: To confirm antigen specific localization of Pan-IR700, 1×10^6 of 3T3/HER2 cells (HER1 negative) were injected subcutaneously in the right dorsum at the same time of A431 cells injection. […] Regions of interest (ROI) for both tumor and background were placed for equivalent sized areas containing the same number of pixels. Tumor to background ratio (TBR) was calculated using the following formula: TBR=((mean tumor intensity)−(mean background intensity))/((mean non-tumor intensity)−(mean background intensity)).

Pan-IR700: Panitumumab (anti-human EGFR IgG2 MAb) conjugated to IR700; about 3 to 4 IR700 per antibody
cell damage following exposure to NIR light (A431 cells): immediate damage was induced in the cell membranes and lysosomes
cell killing by PIT (microscopy) (MDA-MB-468 cells): specifically killed
fluorescence intensity of tumor, 300 μg versus 50 μg injection (A431 tumor; 1 day after injection): more than 3 times
TBR, 300 μg versus 50 μg injection (A431 tumor; mouse, in vivo): lower
fluorescence intensity in tumor over time (A431 tumor; mouse, in vivo): decreased gradually over days
other localization of IR700 (biodistribution) (A431 tumor; mouse, in vivo): no other specific localization of IR700 except for bladder accumulation on day 1
tumor localization (in vivo fluorescence imaging) (A431 tumor; mouse, in vivo): localized to the A431 tumor
